US9957297B2, “Template-fixed peptidomimetics as inhibitors of FPR1” (POLYPHOR AG, priority 2011, dated 2018)
Bridges are numbered along the chain shown (N, C = ends). [ ]: non-standard residue; d: D form. hSer = N[C@@H](CCO)C(=O)O; Dab = NCC[C@H](N)C(=O)O

T1: Formyl-Peptide Receptor 1 (UniProt P21462 1-350, limits assumed)
T1 sequence (looked up): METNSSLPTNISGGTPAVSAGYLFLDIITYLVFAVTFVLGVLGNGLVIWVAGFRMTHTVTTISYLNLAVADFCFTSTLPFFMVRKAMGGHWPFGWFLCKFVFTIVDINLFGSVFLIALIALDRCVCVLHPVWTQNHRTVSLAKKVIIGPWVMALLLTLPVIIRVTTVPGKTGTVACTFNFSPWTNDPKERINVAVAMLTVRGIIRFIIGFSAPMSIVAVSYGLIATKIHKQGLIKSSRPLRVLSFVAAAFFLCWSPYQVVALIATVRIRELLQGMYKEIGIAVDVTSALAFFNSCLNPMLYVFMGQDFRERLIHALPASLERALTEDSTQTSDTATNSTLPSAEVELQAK


Target: T1, Formyl-Peptide Receptor 1
Test: cell-based or functional assay

Row | β-Arrestin IC50 [nM] | Binder
1 | 194 | cyclo([Dab]HKCHG[dP]WTICYEK[dP]P) (disulfide 4-11; SMILES CC[C@H](C)[C@@H]1NC(=O)[C@H]([C@@H](C)O)NC(=O)[C@H](Cc2c[nH]c3ccccc23)NC(=O)[C@H]2CCCN2C(=O)CNC(=O)[C@H](Cc2c[nH]cn2)NC(=O)[C@@H]2CSSC[C@H](NC1=O)C(=O)N[C@@H](Cc1ccc(O)cc1)C(=O)N[C@@H](CCC(=O)O)C(=O)N[C@@H](CCCCN)C(=O)N1CCC[C@@H]1C(=O)N1CCC[C@H]1C(=O)N[C@@H](CCN)C(=O)N[C@@H](Cc1c[nH]cn1)C(=O)N[C@@H](CCCCN)C(=O)N2) [cyclo(-Dab-His-Lys-Cys-His-Gly-^DPro-Trp-Thr-Ile-Cys-Tyr-Glu-Lys-^DPro-Pro-)]
2 | 77 | cyclo(YHKCHG[dA]WTICYEK[dP]P) (disulfide 4-11; SMILES CC[C@H](C)[C@@H]1NC(=O)[C@H]([C@@H](C)O)NC(=O)[C@H](Cc2c[nH]c3ccccc23)NC(=O)[C@@H](C)NC(=O)CNC(=O)[C@H](Cc2c[nH]cn2)NC(=O)[C@@H]2CSSC[C@H](NC1=O)C(=O)N[C@@H](Cc1ccc(O)cc1)C(=O)N[C@@H](CCC(=O)O)C(=O)N[C@@H](CCCCN)C(=O)N1CCC[C@@H]1C(=O)N1CCC[C@H]1C(=O)N[C@@H](Cc1ccc(O)cc1)C(=O)N[C@@H](Cc1c[nH]cn1)C(=O)N[C@@H](CCCCN)C(=O)N2) [cyclo(-Tyr-His-Lys-Cys-His-Gly-^DAla-Trp-Thr-Ile-Cys-Tyr-Glu-Lys-^DPro-Pro-)]
3 | 111 | cyclo(GHKCHG[dP]WTICYEK[dP]P) (disulfide 4-11; SMILES CC[C@H](C)[C@@H]1NC(=O)[C@H]([C@@H](C)O)NC(=O)[C@H](Cc2c[nH]c3ccccc23)NC(=O)[C@H]2CCCN2C(=O)CNC(=O)[C@H](Cc2c[nH]cn2)NC(=O)[C@@H]2CSSC[C@H](NC1=O)C(=O)N[C@@H](Cc1ccc(O)cc1)C(=O)N[C@@H](CCC(=O)O)C(=O)N[C@@H](CCCCN)C(=O)N1CCC[C@@H]1C(=O)N1CCC[C@H]1C(=O)NCC(=O)N[C@@H](Cc1c[nH]cn1)C(=O)N[C@@H](CCCCN)C(=O)N2) [cyclo(-Gly-His-Lys-Cys-His-Gly-^DPro-Trp-Thr-Ile-Cys-Tyr-Glu-Lys-^DPro-Pro-)]
4 | 248 | cyclo([Dab]HKCWG[dP]WTICYEK[dP]P) (disulfide 4-11; SMILES CC[C@H](C)[C@@H]1NC(=O)[C@H]([C@@H](C)O)NC(=O)[C@H](Cc2c[nH]c3ccccc23)NC(=O)[C@H]2CCCN2C(=O)CNC(=O)[C@H](Cc2c[nH]c3ccccc23)NC(=O)[C@@H]2CSSC[C@H](NC1=O)C(=O)N[C@@H](Cc1ccc(O)cc1)C(=O)N[C@@H](CCC(=O)O)C(=O)N[C@@H](CCCCN)C(=O)N1CCC[C@@H]1C(=O)N1CCC[C@H]1C(=O)N[C@@H](CCN)C(=O)N[C@@H](Cc1c[nH]cn1)C(=O)N[C@@H](CCCCN)C(=O)N2) [cyclo(-Dab-His-Lys-Cys-Trp-Gly-^DPro-Trp-Thr-Ile-Cys-Tyr-Glu-Lys-^DPro-Pro-)]
5 | 153 | cyclo(YHKCHG[dP]WTLCYEK[dP]P) (disulfide 4-11; SMILES CC(C)C[C@@H]1NC(=O)[C@H]([C@@H](C)O)NC(=O)[C@H](Cc2c[nH]c3ccccc23)NC(=O)[C@H]2CCCN2C(=O)CNC(=O)[C@H](Cc2c[nH]cn2)NC(=O)[C@@H]2CSSC[C@H](NC1=O)C(=O)N[C@@H](Cc1ccc(O)cc1)C(=O)N[C@@H](CCC(=O)O)C(=O)N[C@@H](CCCCN)C(=O)N1CCC[C@@H]1C(=O)N1CCC[C@H]1C(=O)N[C@@H](Cc1ccc(O)cc1)C(=O)N[C@@H](Cc1c[nH]cn1)C(=O)N[C@@H](CCCCN)C(=O)N2) [cyclo(-Tyr-His-Lys-Cys-His-Gly-^DPro-Trp-Thr-Leu-Cys-Tyr-Glu-Lys-^DPro-Pro-)]
6 | 177 | cyclo(DHKCHG[dP]WTICYEK[dP]P) (disulfide 4-11; SMILES CC[C@H](C)[C@@H]1NC(=O)[C@H]([C@@H](C)O)NC(=O)[C@H](Cc2c[nH]c3ccccc23)NC(=O)[C@H]2CCCN2C(=O)CNC(=O)[C@H](Cc2c[nH]cn2)NC(=O)[C@@H]2CSSC[C@H](NC1=O)C(=O)N[C@@H](Cc1ccc(O)cc1)C(=O)N[C@@H](CCC(=O)O)C(=O)N[C@@H](CCCCN)C(=O)N1CCC[C@@H]1C(=O)N1CCC[C@H]1C(=O)N[C@@H](CC(=O)O)C(=O)N[C@@H](Cc1c[nH]cn1)C(=O)N[C@@H](CCCCN)C(=O)N2) [cyclo(-Asp-His-Lys-Cys-His-Gly-^DPro-Trp-Thr-Ile-Cys-Tyr-Glu-Lys-^DPro-Pro-)]
7 | 232 | cyclo(YHKCHG[dP]WTVCYEK[dP]P) (disulfide 4-11; SMILES CC(C)[C@@H]1NC(=O)[C@H]([C@@H](C)O)NC(=O)[C@H](Cc2c[nH]c3ccccc23)NC(=O)[C@H]2CCCN2C(=O)CNC(=O)[C@H](Cc2c[nH]cn2)NC(=O)[C@@H]2CSSC[C@H](NC1=O)C(=O)N[C@@H](Cc1ccc(O)cc1)C(=O)N[C@@H](CCC(=O)O)C(=O)N[C@@H](CCCCN)C(=O)N1CCC[C@@H]1C(=O)N1CCC[C@H]1C(=O)N[C@@H](Cc1ccc(O)cc1)C(=O)N[C@@H](Cc1c[nH]cn1)C(=O)N[C@@H](CCCCN)C(=O)N2) [cyclo(-Tyr-His-Lys-Cys-His-Gly-^DPro-Trp-Thr-Val-Cys-Tyr-Glu-Lys-^DPro-Pro-)]
8 | 239 | cyclo(HHKCHG[dP]WTICYEK[dP]P) (disulfide 4-11; SMILES CC[C@H](C)[C@@H]1NC(=O)[C@H]([C@@H](C)O)NC(=O)[C@H](Cc2c[nH]c3ccccc23)NC(=O)[C@H]2CCCN2C(=O)CNC(=O)[C@H](Cc2c[nH]cn2)NC(=O)[C@@H]2CSSC[C@H](NC1=O)C(=O)N[C@@H](Cc1ccc(O)cc1)C(=O)N[C@@H](CCC(=O)O)C(=O)N[C@@H](CCCCN)C(=O)N1CCC[C@@H]1C(=O)N1CCC[C@H]1C(=O)N[C@@H](Cc1c[nH]cn1)C(=O)N[C@@H](Cc1c[nH]cn1)C(=O)N[C@@H](CCCCN)C(=O)N2) [cyclo(-His-His-Lys-Cys-His-Gly-^DPro-Trp-Thr-Ile-Cys-Tyr-Glu-Lys-^DPro-Pro-)]
9 | 633 | cyclo(YHKCWG[dP]WTICY[Dab]K[dP]P) (disulfide 4-11; SMILES CC[C@H](C)[C@@H]1NC(=O)[C@H]([C@@H](C)O)NC(=O)[C@H](Cc2c[nH]c3ccccc23)NC(=O)[C@H]2CCCN2C(=O)CNC(=O)[C@H](Cc2c[nH]c3ccccc23)NC(=O)[C@@H]2CSSC[C@H](NC1=O)C(=O)N[C@@H](Cc1ccc(O)cc1)C(=O)N[C@@H](CCN)C(=O)N[C@@H](CCCCN)C(=O)N1CCC[C@@H]1C(=O)N1CCC[C@H]1C(=O)N[C@@H](Cc1ccc(O)cc1)C(=O)N[C@@H](Cc1c[nH]cn1)C(=O)N[C@@H](CCCCN)C(=O)N2) [cyclo(-Tyr-His-Lys-Cys-Trp-Gly-^DPro-Trp-Thr-Ile-Cys-Tyr-Dab-Lys-^DPro-Pro-)]
10 | 69 | cyclo(YHKCWG[dA]WTICYEK[dP]P) (disulfide 4-11; SMILES CC[C@H](C)[C@@H]1NC(=O)[C@H]([C@@H](C)O)NC(=O)[C@H](Cc2c[nH]c3ccccc23)NC(=O)[C@@H](C)NC(=O)CNC(=O)[C@H](Cc2c[nH]c3ccccc23)NC(=O)[C@@H]2CSSC[C@H](NC1=O)C(=O)N[C@@H](Cc1ccc(O)cc1)C(=O)N[C@@H](CCC(=O)O)C(=O)N[C@@H](CCCCN)C(=O)N1CCC[C@@H]1C(=O)N1CCC[C@H]1C(=O)N[C@@H](Cc1ccc(O)cc1)C(=O)N[C@@H](Cc1c[nH]cn1)C(=O)N[C@@H](CCCCN)C(=O)N2) [cyclo(-Tyr-His-Lys-Cys-Trp-Gly-^DAla-Trp-Thr-Ile-Cys-Tyr-Glu-Lys-^DPro-Pro-)]
11 | 37 | cyclo(YHKCHG[dP]WTICYDK[dP]P) (disulfide 4-11; SMILES CC[C@H](C)[C@@H]1NC(=O)[C@H]([C@@H](C)O)NC(=O)[C@H](Cc2c[nH]c3ccccc23)NC(=O)[C@H]2CCCN2C(=O)CNC(=O)[C@H](Cc2c[nH]cn2)NC(=O)[C@@H]2CSSC[C@H](NC1=O)C(=O)N[C@@H](Cc1ccc(O)cc1)C(=O)N[C@@H](CC(=O)O)C(=O)N[C@@H](CCCCN)C(=O)N1CCC[C@@H]1C(=O)N1CCC[C@H]1C(=O)N[C@@H](Cc1ccc(O)cc1)C(=O)N[C@@H](Cc1c[nH]cn1)C(=O)N[C@@H](CCCCN)C(=O)N2) [cyclo(-Tyr-His-Lys-Cys-His-Gly-^DPro-Trp-Thr-Ile-Cys-Tyr-Asp-Lys-^DPro-Pro-)]
12 | 15 | cyclo(YHKCHG[dP]WTICYWK[dP]P) (disulfide 4-11; SMILES CC[C@H](C)[C@@H]1NC(=O)[C@H]([C@@H](C)O)NC(=O)[C@H](Cc2c[nH]c3ccccc23)NC(=O)[C@H]2CCCN2C(=O)CNC(=O)[C@H](Cc2c[nH]cn2)NC(=O)[C@@H]2CSSC[C@H](NC1=O)C(=O)N[C@@H](Cc1ccc(O)cc1)C(=O)N[C@@H](Cc1c[nH]c3ccccc13)C(=O)N[C@@H](CCCCN)C(=O)N1CCC[C@@H]1C(=O)N1CCC[C@H]1C(=O)N[C@@H](Cc1ccc(O)cc1)C(=O)N[C@@H](Cc1c[nH]cn1)C(=O)N[C@@H](CCCCN)C(=O)N2) [cyclo(-Tyr-His-Lys-Cys-His-Gly-^DPro-Trp-Thr-Ile-Cys-Tyr-Trp-Lys-^DPro-Pro-)]
13 | 60 | cyclo(YHACWG[dP]WTICYQK[dP]E) (disulfide 4-11; SMILES CC[C@H](C)[C@@H]1NC(=O)[C@H]([C@@H](C)O)NC(=O)[C@H](Cc2c[nH]c3ccccc23)NC(=O)[C@H]2CCCN2C(=O)CNC(=O)[C@H](Cc2c[nH]c3ccccc23)NC(=O)[C@@H]2CSSC[C@H](NC1=O)C(=O)N[C@@H](Cc1ccc(O)cc1)C(=O)N[C@@H](CCC(N)=O)C(=O)N[C@@H](CCCCN)C(=O)N1CCC[C@@H]1C(=O)N[C@@H](CCC(=O)O)C(=O)N[C@@H](Cc1ccc(O)cc1)C(=O)N[C@@H](Cc1c[nH]cn1)C(=O)N[C@@H](C)C(=O)N2) [cyclo(-Tyr-His-Ala-Cys-Trp-Gly-^DPro-Trp-Thr-Ile-Cys-Tyr-Gln-Lys-^DPro-Glu-)]
14 | 138 | cyclo(YHKCHG[dP]WTICY[hSer]K[dP]P) (disulfide 4-11; SMILES CC[C@H](C)[C@@H]1NC(=O)[C@H]([C@@H](C)O)NC(=O)[C@H](Cc2c[nH]c3ccccc23)NC(=O)[C@H]2CCCN2C(=O)CNC(=O)[C@H](Cc2c[nH]cn2)NC(=O)[C@@H]2CSSC[C@H](NC1=O)C(=O)N[C@@H](Cc1ccc(O)cc1)C(=O)N[C@@H](CCO)C(=O)N[C@@H](CCCCN)C(=O)N1CCC[C@@H]1C(=O)N1CCC[C@H]1C(=O)N[C@@H](Cc1ccc(O)cc1)C(=O)N[C@@H](Cc1c[nH]cn1)C(=O)N[C@@H](CCCCN)C(=O)N2) [cyclo(-Tyr-His-Lys-Cys-His-Gly-^DPro-Trp-Thr-Ile-Cys-Tyr-Hse-Lys-^DPro-Pro-)]
